We go through five molecules from publication PMC10799026, “Differences in regulation mechanisms of glutamine synthetases from methanogenic archaea unveiled by structural investigations” (Communications Biology, 2024).

Broadly, the stoichiometry N is a count of units in the complex or per binding partner. The inhibition is the percentage by which the read-out fell short of the control. As usually defined, the Km is the concentration of substrate that gives half-maximal velocity. In general, Vmax refers to the top rate of the reaction or transport when substrate is in excess.

Data set [1] has as its target glutamine synthetase (GSI-α) from Methanothermococcus thermolithotrophicus (Methanothermococcus thermolithotrophicus). As to the kind of experiment: crystal structure; sitting drop, 20 °C, anaerobic; apo and ligand-bound (2OG/Mg2+, 2OG/Mg2+/ATP, Mg2+/ATP) crystal forms.
The target is the same in data set [2]. As to the kind of experiment: native gel or EMSA; high-resolution clear native PAGE (hrCN PAGE), 5-12% gradient gels, 40 mA for 1 h, 2 µg purified GS; size from a fit to standard proteins.
For data set [3] the target is unchanged. The data set is described as follows: SEC; Superose 6 Increase 10/300 GL, anaerobic, 20 °C, 25 mM Tris/HCl pH 7.6, 10% glycerol, 2 mM DTT, 0.4 ml/min; 76 µg MtGS, 67.5 µg MsGS; size from a fit to standard proteins. For orientation: SEC sorts molecules by how far they enter the pores of the column.
In data set [4] the target is glutamine synthetase (GSI-α) from Methermicoccus shengliensis (Methermicoccus shengliensis). As to the kind of experiment: crystal structure; sitting drop, 20 °C, anaerobic; apo and ligand-bound (2OG/Mg2+, 2OG/Mg2+/ATP, Mg2+/ATP) crystal forms.
Data set [5] has the same target. The data set is described as follows: native gel or EMSA; high-resolution clear native PAGE (hrCN PAGE), 5-12% gradient gels, 40 mA for 1 h, 2 µg purified GS; size from a fit to standard proteins. (In general: A gel shift assay detects complexes by their altered migration in electrophoresis.)
Data set [6] shares this target. The data set is described as follows: SEC; Superose 6 Increase 10/300 GL, anaerobic, 20 °C, 25 mM Tris/HCl pH 7.6, 10% glycerol, 2 mM DTT, 0.4 ml/min; 76 µg MtGS, 67.5 µg MsGS; size from a fit to standard proteins.
A further data set has as its target T1, MsGS (Methermicoccus shengliensis, UniProt A0A832VZP6).
T1 construct: gene glnA; native, purified anaerobically from M. shengliensis cells, no tag
T1 sequence (A0A832VZP6 1-442): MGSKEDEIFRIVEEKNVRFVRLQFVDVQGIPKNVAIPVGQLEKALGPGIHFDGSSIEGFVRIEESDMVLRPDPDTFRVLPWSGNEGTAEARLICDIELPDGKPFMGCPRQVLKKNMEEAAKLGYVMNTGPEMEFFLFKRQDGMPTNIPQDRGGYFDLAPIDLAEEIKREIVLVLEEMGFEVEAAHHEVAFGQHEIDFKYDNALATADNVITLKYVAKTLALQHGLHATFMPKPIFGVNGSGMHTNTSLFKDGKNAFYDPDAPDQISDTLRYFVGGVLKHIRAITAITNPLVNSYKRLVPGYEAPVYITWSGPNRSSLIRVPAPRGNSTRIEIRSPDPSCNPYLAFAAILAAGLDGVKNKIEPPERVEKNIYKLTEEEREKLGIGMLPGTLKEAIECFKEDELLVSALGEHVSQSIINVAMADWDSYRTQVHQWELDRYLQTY
The data set is described as follows: PK/LDH coupled assay, NADH oxidation at […] nm. It is filed as biochemical. The settings on record: read-out: % inhibition at 20 mM.

Substrate in data set [7]: N
The data set is described as follows: purified protein. The conditions noted are these: 3 mM ATP, 25 mM MgCl2, pH 7, 45 °C, Hill fit.

Substrate in data set [8]: N[C@@H](CCC(=O)O)C(=O)O
As to the kind of experiment: purified protein. The format is biochemical, Methanothermococcus thermolithotrophicus. The conditions noted are these: in presence of 2 mM 2OG (required activator), 20 mM NH4Cl, 3 mM ATP, 25 mM MgCl2, pH 7, 45 °C, Hill fit.

Substrate in data set [9]: N[C@@H](CCC(=O)O)C(=O)O
As to the kind of experiment: purified protein. It is filed as biochemical, Methermicoccus shengliensis. The conditions noted are these: 20 mM NH4Cl, 3 mM ATP, 25 mM MgCl2, pH 7, 45 °C, standard mix contains 2 mM 2OG (no effect on MsGS), Hill fit.

Where [10] appears, read: in presence of 2 mM 2OG (required activator), 50 mM glutamate.
The mark [11] stands for this setting: 80 mM glutamate, standard mix contains 2 mM 2OG (no effect on MsGS).

Regarding “glutamine synthetase (GSI-α) from Methanothermococcus thermolithotrophicus (enzyme)”, the stoichiometry N in data set [1], in data set [2] and in data set [3] was 12 each time.

As to “glutamine synthetase (GSI-α) from Methermicoccus shengliensis (enzyme)”, the stoichiometry N in data set [4], in data set [5] and in data set [6] was 12 each time.

In the case of `NC(=O)CC[C@H](N)C(=O)O` [glutamine], at MsGS, the inhibition at 20000 µM was found to be 97%.

B1: MtGS (Methanothermococcus thermolithotrophicus DSM 2095) (protein)
chain: MSTVEQVLEYVKSNNVKFMRFQFVDILGVPKNVAFPIKAGEKGIEELRDVLENGLYFDGSSIEGFVGINESDMMLKPDLSTFSVLPWRPSEKSVARVICDVYTTKGKPFEGDPRGCLKRVMEEFKKEFNGEYFVGPEPEFFLLKKDPHNPHKYIPADDGGYFDLEPMDEAPDIRRDIVFALENLGFHVEASHHEVAPGQHEVDFKFDDALKTADSVITFKTTIKTIAEQHGLKATFMPKPFFGMNGSGMHCHQSIWLNGEPSFYDENAPYQLSETCMNYVAGILKHAKAIVAITNPTVNSYKRLVPGYEAPVNIAWANSNRSAIIRVPAARGKGTRIEFRAPDPSCNPYLAFTVMLAAGLDGVKNKLDAPEPVERNIFAMSEAEKKELGIESVPANLKAALDELENNDVLKNALGKHIFESFLEIKNAEWDSFRTSVTDWETTAYLKI
notes: native, purified anaerobically from M. thermolithotrophicus cells, no tag
Consider B1, for which, in the data set “purified protein [7]” (setting [10]), the Km was 0.14 ± 0.01 mM and the Vmax was determined as 3.27 µmol/min/mg. Besides, in the data set “purified protein [8]”, the Michaelis-Menten constant (Km) is on record as 8.76 ± 0.87 mM and the Vmax turned out to be 3.42 µmol/min/mg.

B2: MsGS (Methermicoccus shengliensis) (protein)
chain: T1 sequence (A0A832VZP6 1-442)
notes: native, purified anaerobically from M. shengliensis cells, no tag
On to B2, for which, in “purified protein [7]” (setting [11]), the Km is 0.07 ± 0.01 mM and the Vmax turned out to be 0.98 µmol/min/mg. Also, in the data set “purified protein [9]”, the Michaelis constant (Km) is recorded as 32.57 ± 3.13 mM and the Vmax stood at 1.4 µmol/min/mg.
